These are literature values, as cited in patent KR20200047176A, “투라노스의 제조방법” (주식회사 삼양사, priority 2018, dated 2020).

For this data set the following is noted: 2 M sucrose substrate.

B1: NpAS: amylosucrase from Neisseria polysaccharea, known prior enzyme (protein, UniProt Q9ZEU2 1-636, looked up)
Amylosucrase: MLTPTQQVGLILQYLKTRILDIYTPEQRAGIEKSEDWRQFSRRMDTHFPKLMNELDSVYGNNEALLPMLEMLLAQAWQSYSQRNSSLKDIDIARENNPDWILSNKQVGGVCYVDLFAGDLKGLKDKIPYFQELGLTYLHLMPLFKCPEGKSDGGYAVSSYRDVNPALGTIGDLREVIAALHEAGISAVVDFIFNHTSNEHEWAQRCAAGDPLFDNFYYIFPDRRMPDQYDRTLREIFPDQHPGGFSQLEDGRWVWTTFNSFQWDLNYSNPWVFRAMAGEMLFLANLGVDILRMDAVAFIWKQMGTSCENLPQAHALIRAFNAVMRIAAPAVFFKSEAIVHPDQVVQYIGQDECQIGYNPLQMALLWNTLATREVNLLHQALTYRHNLPEHTAWVNYVRSHDDIGWTFADEDAAYLGISGYDHRQFLNRFFVNRFDGSFARGVPFQYNPSTGDCRVSGTAAALVGLAQDDPHAVDRIKLLYSIALSTGGLPLIYLGDEVGTLNDDDWSQDSNKSDDSRWAHRPRYNEALYAQRNDPSTAAGQIYQGLRHMIAVRQSNPRFDGGRLVTFNTNNKHIIGYIRNNALLAFGNFSEYPQTVTAHTLQAMPFKAHDLIGGKTVSLNQDLTLQPYQVMWLEIA
In the case of B1, the turanose conversion is 50.9%.
